# Tested on: capG phosphorylation in RAW 264 cells
# Test: two-dimensional anti-phosphotyrosine Western blot of RAW 264 cell lysates with and without RANKL stimulation and inhibitor pretreatment
# Format: cell-based, murine
# Conditions: RAW 264 cells stimulated with RANKL versus unstimulated control
# Description: RAW 264 cells were obtained from Bristol Myers Squibb Department of Metabolic Diseases. The cells were grown in minimal essential media supplemented with 5% fetal bovine serum and 1% nonessential amino acids. For assay purposes, RAW 264 cells were starved for 5 hours in serum free media and then cultured in media containing 2% fetal bovine serum and RANK ligand. When inhibitors were used, as set forth below, the cells were pre-exposed to the inhibitor for one hour prior to RANKL stimulation. To identify RANKL specific tyrosine phosphorylation, RAW264 cells were treated with RANKL in the presence and absence of PP1 [4-Amino-5-(4-methylphenyl)-7-(t-butyl)pyrazolo[3,4-d]pyrimidine], a specific inhibitor of pp60src and wortmannin, a specific inhibitor of PI3kinase (Lakkakorpi, P. T. et al., “Phosphatidylinositol 3-kinase association with the osteoclast cytoskeleton, and its involvement in osteoclast attachment and spreading”. Exp. Cell Res. 237(2):296-306 (1997)), and cell lysates evaluated by proteomic analysis. Cell lysates were separated by two-dimensional electrophoresis in duplicate and transferred to PVDF membranes. […] 35(6):672-682 (2000), for subsequent proteomic analysis with the corresponding membrane analyzed by western blotting using anti-phosphotyrosine antibody. […] Maximal fluorescence incorporation occurred within 4 hours. […]
molecule,measurement,value
"RANKL: ligand recognized by receptor activator of NF-κB (RANK), leads to osteoclast differentiation (protein, UniProt O14788 140-317, looked up) Tumor necrosis factor ligand …: IRAEKAMVDGSWLDLAKRSKLEAQPFAHLTINATDIPSGSHKVSLSSWYHDRGWAKISNMTFSNGKLIVNQDGFYYLYANICFRHHETSGDLATEYLQLMVYVTKTSIKIPSSHTLMKGGSTKYWSGNSEFHFYSINVGGFFKLRSGEEISIEVSNPSLLDPDQDATYFGAFKVRDID",capG phosphorylation on stimulation,causes capG 102 phosphorylation
